Measured values reported in PMC10244618.
Where “and” joins values, the source holds several entries; their conditions need not be identical. Equal entries are not always repeated.

B1: NF2 (merlin) isoform 7, human, full length (507 aa, lacks exons 2-3 = isoform-1 residues 39-121; exon-16 C-terminus), P35240-4 (parent)
chain: MAGAIASRMSFSSLKRKQPKTFTVRIVTMDAEMEFNCEVKKQILDEKIYCPPEASVLLASYAVQAKYGDYDPSVHKRGFLAQEELLPKRVINLYQMTPEMWEERITAWYAEHRGRARDEAEMEYLKIAQDLEMYGVNYFAIRNKKGTELLLGVDALGLHIYDPENRLTPKISFPWNEIRNISYSDKEFTIKPLDKKIDVFKFNSSKLRVNKLILQLCIGNHDLFMRRRKADSLEVQQMKAQAREEKARKQMERQRLAREKQMREEAERTRDELERRLLQMKEEATMANEALMRSEETADLLAEKAQITEEEAKLLAQKAAEAEQEMQRIKATAIRTEEEKRLMEQKVLEAEVLALKMAEESERRAKEADQLKQDLQEAREAERRAKQKLLEIATKPTYPPMNPIPAPLPPDIPSFNLIGDSLSFDFKDTDMKRLSMEIEKEKVEYMEKSKHLQEQLNELKTEIEALKLKERETALDILHNENSDRGGSSKHNTIKKPQAQGRRPICI

Variants of: B1
Assay: reverse yeast two-hybrid deep mutational scan (rY2H-seq): NF2 isoform 7 mutant library as bait mated with wild-type prey strains; selection on medium lacking adenine for non-interacting pairs; NextSeq paired-end sequencing; enrichment vs …
Conditions: yeast diploids after mating (RBait_S3 x RPrey_S3), 30 °C, selection for reporter genes on NB agar, HIGHER = WEAKER BINDING (the opposite of display enrichments): higher = stronger loss of interaction: reverse Y2H selects yeast in which bait and prey do NOT interact (growth without adenine), so a …, hits-only table, scale: rY2H score, numbering: uniprot, sequence starts at 1
[1] = with EMILIN1 (elastin microfibril interfacer 1), Q9Y6C2, human ABL2 co-expressed as the kinase-dead K35M mutant …
[2] = with KDM1A (lysine-specific histone demethylase 1A; the table's label AOF2 is a gene synonym of KDM1A), O60341, human ABL2 co-expressed as the kinase-dead K35M mutant …
[3] = with KDM1A (lysine-specific histone demethylase 1A; the table's label AOF2 is a gene synonym of KDM1A), O60341, human tyrosine kinase ABL2 co-expressed as the active kinase …
[4] = with NF2 C-terminal domain (wild type; homomeric NF2-NF2 interaction), P35240, human ABL2 co-expressed as the kinase-dead K35M mutant …, partner unresolved
[5] = with EMILIN1 (elastin microfibril interfacer 1), Q9Y6C2, human tyrosine kinase ABL2 co-expressed as the active kinase …
[6] = with PIK3R3 (phosphatidylinositol 3-kinase regulatory subunit gamma), Q92569, human tyrosine kinase ABL2 co-expressed as the active kinase …

Variant: A316S
- enrichment [1]: 3.61

Variant: R25L
- enrichment [1]: 3.54
- enrichment [2]: 4.09
- enrichment [3]: 7.07

Variant: T97I
- enrichment [1]: 1.62
- enrichment [3]: 1.95

Variant: I178K
- enrichment [1]: 6.13
- enrichment [4]: 2.57

Variant: G146L
- enrichment [1]: 2.08
- enrichment [5]: 6.29

Variant: T297A
- enrichment [1]: 2.57
- enrichment [3]: 2.94

Variant: L300E
- enrichment [1]: 5.44
- enrichment [5]: 5.18
- enrichment [4]: 4.73 and 3.13

Variant: E349T
- enrichment [1]: 2.72 and 2.96
- enrichment [5]: 3.96 and 3.74
- enrichment [2]: 3.54 and 3.02
- enrichment [3]: 2.75

Variant: M326E
- enrichment [1]: 4.89
- enrichment [5]: 3.65
- enrichment [2]: 6.72
- enrichment [3]: 1.86
- enrichment [4]: 1.94

Variant: A59L
- enrichment [1]: 10.7 and 8.14
- enrichment [2]: 15.4
- enrichment [3]: 29
- enrichment [4]: 7.54
- enrichment [6]: 25.9

Variant: V347E
- enrichment [1]: 2.33 and 1.87
- enrichment [2]: 3.23
- enrichment [4]: 2.41

Variant: E272K
- enrichment [1]: 1.57
- enrichment [2]: 3.01 and 2.96
- enrichment [3]: 1.77
- enrichment [4]: 3.42 and 3.26
- enrichment [6]: 2.55 and 1.61 and 4.74

Variant: E272A
- enrichment [1]: 3.71
- enrichment [2]: 2.65

Variant: P87S
- enrichment [1]: 1.62
- enrichment [5]: 1.61
- enrichment [2]: 2.56
- enrichment [3]: 3.13
- enrichment [6]: 2.86

Variant: S172P
- enrichment [1]: 1.73
- enrichment [2]: 1.94
- enrichment [6]: 2.04 and 2.73

Variant: K170R
- enrichment [1]: 2.58
- enrichment [3]: 3.72
- enrichment [6]: 2.74

Variant: G135E
- enrichment [1]: 2.42
- enrichment [2]: 2.61

Variant: V74L
- enrichment [1]: 3.98

Variant: V74C
- enrichment [1]: 2.3
- enrichment [2]: 2.58
- enrichment [6]: 1.98

Variant: M280E
- enrichment [1]: 2.68

Variant: E325L
- enrichment [1]: 2.13
- enrichment [2]: 5.66
- enrichment [4]: 3.02

Variant: N176L
- enrichment [1]: 7.14
- enrichment [5]: 1.82
- enrichment [4]: 10.6
- enrichment [6]: 1.81

Variant: T332D
- enrichment [1]: 4.98 and 1.87
- enrichment [5]: 2.07

Variant: T332L
- enrichment [1]: 1.4
- enrichment [6]: 2.31

Variant: Q279K
- enrichment [1]: 2.01
- enrichment [5]: 2.32 and 4.35
- enrichment [2]: 6.01
- enrichment [6]: 7.05

Variant: R341E
- enrichment [1]: 3.61
- enrichment [4]: 2.88
- enrichment [6]: 6.39

Variant: R341L
- enrichment [1]: 2.12 and 2.16
- enrichment [2]: 4.47 and 2.73
- enrichment [4]: 1.59

Variant: R341K
- enrichment [1]: 2.64
- enrichment [5]: 3.2
- enrichment [2]: 7.07

Variant: E259V
- enrichment [1]: 2.5
- enrichment [5]: 1.65
- enrichment [2]: 2.8
- enrichment [3]: 2.08
- enrichment [4]: 2.03
- enrichment [6]: 4.06 and 2.02

Variant: E259T
- enrichment [1]: 17.4 and 9.29
- enrichment [5]: 19.6
- enrichment [2]: 38.4
- enrichment [4]: 4.23

Variant: E259L
- enrichment [1]: 1.55
- enrichment [5]: 1.72
- enrichment [2]: 3.91 and 3.57

Variant: L156P
- enrichment [1]: 2.26
- enrichment [2]: 3.08 and 3.61
- enrichment [3]: 1.95
- enrichment [4]: 3.25 and 1.98

Variant: A320L
- enrichment [1]: 2.52
- enrichment [5]: 3.39
- enrichment [2]: 4.56 and 4.18

Variant: G219E
- enrichment [1]: 1.55

Variant: D162K
- enrichment [1]: 1.74

Variant: D162L
- enrichment [1]: 3.3
- enrichment [2]: 2.41
- enrichment [4]: 2.21

Variant: D69A
- enrichment [1]: 2.53

Variant: E338K
- enrichment [1]: 2.51

Variant: E338A
- enrichment [1]: 3.66
- enrichment [5]: 4.28
- enrichment [2]: 2.42
- enrichment [3]: 6.92
- enrichment [6]: 4.09

Variant: E338L
- enrichment [1]: 2.57
- enrichment [5]: 2.53
- enrichment [2]: 5.57
- enrichment [4]: 3.03

Variant: E338R
- enrichment [1]: 2.37

Variant: M122E
- enrichment [1]: 4.7

Variant: R113C
- enrichment [1]: 3.78 and 3.75
- enrichment [5]: 7.86 and 3.66
- enrichment [2]: 4.82 and 6.06
- enrichment [3]: 4.42 and 5.11
- enrichment [6]: 7.41

Variant: L301E
- enrichment [1]: 7.29
- enrichment [5]: 1.77
- enrichment [2]: 4.8
- enrichment [4]: 3.42

Variant: L301K
- enrichment [1]: 4.43

Variant: L342K
- enrichment [1]: 1.65 and 3.1
- enrichment [5]: 2.14 and 6.11
- enrichment [2]: 6.76 and 4.54
- enrichment [3]: 1.63

Variant: L342A
- enrichment [1]: 2.66
- enrichment [5]: 3.99
- enrichment [2]: 2.28

Variant: L342E
- enrichment [1]: 3.3 and 9.12
- enrichment [5]: 3.94
- enrichment [2]: 4.91
- enrichment [4]: 1.9

Variant: R253K
- enrichment [1]: 5.53
- enrichment [5]: 10.6
- enrichment [2]: 6.44 and 7.44
- enrichment [4]: 1.43

Variant: E344L
- enrichment [1]: 4.18 and 2.17
- enrichment [5]: 2.34 and 1.8
- enrichment [3]: 2.31

Variant: E344K
- enrichment [1]: 1.78 and 4.12
- enrichment [5]: 3.82 and 2.77
- enrichment [2]: 1.57
- enrichment [6]: 4.06

Variant: E344G
- enrichment [1]: 6.34 and 11.1
- enrichment [2]: 10.3

Variant: H159S
- enrichment [1]: 21.9
- enrichment [4]: 18

Variant: E274K
- enrichment [1]: 1.67

Variant: R335K
- enrichment [1]: 3.27
- enrichment [5]: 2.33
- enrichment [2]: 4.54 and 2.35
- enrichment [3]: 3.19

Variant: R335A
- enrichment [1]: 35.1
- enrichment [5]: 43.3
- enrichment [2]: 67.9 and 31.8

Variant: A155L
- enrichment [1]: 2.92 and 3.34

Variant: A331L
- enrichment [1]: 2.6 and 2.58
- enrichment [5]: 3.27
- enrichment [2]: 4.61 and 1.64
- enrichment [3]: 5.02

Variant: L151R
- enrichment [1]: 3.32 and 4.31
- enrichment [5]: 6.23 and 2.68
- enrichment [2]: 3.69

Variant: L151K
- enrichment [1]: 3.05

Variant: L151S
- enrichment [1]: 3.66
- enrichment [2]: 7.87
- enrichment [3]: 6.8
- enrichment [4]: 12.3

Variant: P52E
- enrichment [1]: 9.88

Variant: L291P
- enrichment [1]: 1.99

Variant: N137L
- enrichment [1]: 2.2
- enrichment [5]: 2.24
- enrichment [3]: 1.53
- enrichment [6]: 1.5

Variant: E323K
- enrichment [1]: 1.53
- enrichment [5]: 1.69
- enrichment [6]: 4.79

Variant: D299A
- enrichment [1]: 1.54

Variant: G78A
- enrichment [1]: 3.44

Variant: T28L
- enrichment [1]: 5.37

Variant: Q327Y
- enrichment [1]: 2.5

Variant: Q327K
- enrichment [1]: 1.55

Variant: E265K
- enrichment [1]: 4.95

Variant: E265L
- enrichment [1]: 3.19
- enrichment [5]: 3.78
- enrichment [2]: 7.66
- enrichment [3]: 4.47

Variant: A322E
- enrichment [1]: 3.28
- enrichment [4]: 2.97

Variant: Q345T
- enrichment [1]: 23.4
- enrichment [5]: 13.4
- enrichment [2]: 21.7
- enrichment [3]: 6.27

Variant: R226G
- enrichment [1]: 1.63

Variant: A302E
- enrichment [1]: 4.06
- enrichment [2]: 2.49 and 5

Variant: R227K
- enrichment [1]: 1.95

Variant: S55E
- enrichment [1]: 6.87
- enrichment [5]: 5.24
- enrichment [2]: 5.38
- enrichment [3]: 7.48

Variant: E339T
- enrichment [1]: 3.93
- enrichment [5]: 5.99
- enrichment [2]: 2.02
- enrichment [4]: 2.08

Variant: E339L
- enrichment [1]: 1.74
- enrichment [4]: 1.65

Variant: E339A
- enrichment [1]: 2.51
- enrichment [5]: 1.94

Variant: E339K
- enrichment [1]: 4.07 and 1.56
- enrichment [5]: 3.86
- enrichment [2]: 2.92
- enrichment [3]: 2.13
- enrichment [4]: 1.45
- enrichment [6]: 1.62

Variant: K313A
- enrichment [1]: 2.05
- enrichment [2]: 1.63
- enrichment [3]: 3.82
- enrichment [6]: 3.82

Variant: E177L
- enrichment [1]: 4.46
- enrichment [5]: 2.3
- enrichment [4]: 5.54

Variant: P174T
- enrichment [1]: 2.95
- enrichment [2]: 1.5 and 1.57 and 1.64
- enrichment [6]: 2.16 and 1.7

Variant: L58K
- enrichment [1]: 3.39
- enrichment [5]: 9.82 and 9.59
- enrichment [2]: 7.46 and 14.7
- enrichment [3]: 7.51
- enrichment [4]: 2.82

Variant: K15A
- enrichment [1]: 6.29
- enrichment [5]: 6.35 and 3.55
- enrichment [2]: 13.9
- enrichment [3]: 2.57
- enrichment [6]: 7.57

Variant: L315E
- enrichment [1]: 3.8
- enrichment [2]: 2.62 and 6.59

Variant: K281A
- enrichment [1]: 6.85

Variant: L149A
- enrichment [1]: 4.26
- enrichment [5]: 2.53 and 5.08
- enrichment [4]: 2.75 and 3.85
- enrichment [6]: 17.7

Variant: M251A
- enrichment [1]: 3.87 and 2.36
- enrichment [5]: 6.14
- enrichment [2]: 4.5
- enrichment [3]: 2.61
- enrichment [6]: 4.21

Variant: K211I
- enrichment [1]: 3.12
- enrichment [5]: 3.16
- enrichment [2]: 5.27
- enrichment [3]: 2.6
- enrichment [4]: 2.67
- enrichment [6]: 2.81 and 3.72
